B1: Cell cycle serine/threonine-protein kinase CDC5/MSD2 (Saccharomyces cerevisiae), P32562 (parent)
chain: MSLGPLKAINDKQLNTRSKLVHTPIKGNTADLVGKENHFKQTKRLDPNNDHHHQPAQKKKREKLSALCKTPPSLIKTRGKDYHRGHFLGEGGFARCFQIKDDSGEIFAAKTVAKASIKSEKTRKKLLSEIQIHKSMSHPNIVQFIDCFEDDSNVYILLEICPNGSLMELLKRRKVLTEPEVRFFTTQICGAIKYMHSRRVIHRDLKLGNIFFDSNYNLKIGDFGLAAVLANESERKYTICGTPNYIAPEVLMGKHSGHSFEVDIWSLGVMLYALLIGKPPFQARDVNTIYERIKCRDFSFPRDKPISDEGKILIRDILSLDPIERPSLTEIMDYVWFRGTFPPSIPSTVMSEAPNFEDIPEEQSLVNFKDCMEKSLLLESMSSDKIQRQKRDYISSIKSSIDKLEEYHQNRPFLPHSLSPGGTKQKYKEVVDIEAQRRLNDLAREARIRRAQQAVLRKELIATSTNVIKSEISLRILASECHLTLNGIVEAEAQYKMGGLPKSRLPKIKHPMIVTKWVDYSNKHGFSYQLSTEDIGVLFNNGTTVLRLADAEEFWYISYDDREGWVASHYLLSEKPRELSRHLEVVDFFAKYMKANLSRVSTFGREEYHKDDVFLRRYTRYKPFVMFELSDGTFQFNFKDHHKMAISDGGKLVTYISPSHESTTYPLVEVLKYGEIPGYPESNFREKLTLIKEGLKQKSTIVTVD
partner: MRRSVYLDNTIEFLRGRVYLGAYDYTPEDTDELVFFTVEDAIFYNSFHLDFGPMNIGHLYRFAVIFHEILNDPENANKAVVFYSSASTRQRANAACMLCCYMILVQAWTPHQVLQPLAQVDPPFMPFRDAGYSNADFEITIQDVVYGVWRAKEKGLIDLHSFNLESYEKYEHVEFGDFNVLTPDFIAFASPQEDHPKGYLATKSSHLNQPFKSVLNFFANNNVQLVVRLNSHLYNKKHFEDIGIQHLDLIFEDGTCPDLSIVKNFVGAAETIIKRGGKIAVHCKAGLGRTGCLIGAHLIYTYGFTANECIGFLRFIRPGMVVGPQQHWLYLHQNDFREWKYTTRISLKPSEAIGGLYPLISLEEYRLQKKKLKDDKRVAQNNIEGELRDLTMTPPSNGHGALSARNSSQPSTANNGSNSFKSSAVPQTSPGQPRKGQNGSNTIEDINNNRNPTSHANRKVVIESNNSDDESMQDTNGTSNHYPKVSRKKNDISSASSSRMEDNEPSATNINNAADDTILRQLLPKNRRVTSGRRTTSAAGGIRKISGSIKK

Variants of: B1
Details: with cdc14_yeast CDC14, Q00684

How did the “effect of a mutation on the interaction” value turn out when H641A;K643M was run?
Its value is “decreasing interaction”.
